To fix the notation:
B1: Tetraspanin-5 (Homo sapiens), P62079 (parent)
chain: MSGKHYKGPEVSCCIKYFIFGFNVIFWFLGITFLGIGLWAWNEKGVLSNISSITDLGGFDPVWLFLVVGGVMFILGFAGCIGALRENTFLLKFFSVFLGIIFFLELTAGVLAFVFKDWIKDQLYFFINNNIRAYRDDIDLQNLIDFTQEYWQCCGAFGADDWNLNIYFNCTDSNASRERCGVPFSCCTKDPAEDVINTQCGYDARQKPEVDQQIVIYTKGCVPQFEKWLQDNLTIVAGIFIGIALLQIFGICLAQNLVSDIEAVRASW
partner: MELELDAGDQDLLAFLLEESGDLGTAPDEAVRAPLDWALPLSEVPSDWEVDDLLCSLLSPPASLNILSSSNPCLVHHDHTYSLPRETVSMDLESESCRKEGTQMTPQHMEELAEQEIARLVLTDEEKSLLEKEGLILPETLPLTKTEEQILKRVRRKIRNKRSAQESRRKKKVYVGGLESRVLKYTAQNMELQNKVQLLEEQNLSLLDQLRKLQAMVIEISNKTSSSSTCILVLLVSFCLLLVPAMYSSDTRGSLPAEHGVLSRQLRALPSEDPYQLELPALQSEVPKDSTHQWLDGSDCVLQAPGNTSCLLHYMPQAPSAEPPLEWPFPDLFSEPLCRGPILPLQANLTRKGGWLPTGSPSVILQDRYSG
B2: Aminoacylase-1 (Homo sapiens), Q03154 (parent)
chain: MTSKGPEEEHPSVTLFRQYLRIRTVQPKPDYGAAVAFFEETARQLGLGCQKVEVAPGYVVTVLTWPGTNPTLSSILLNSHTDVVPVFKEHWSHDPFEAFKDSEGYIYARGAQDMKCVSIQYLEAVRRLKVEGHRFPRTIHMTFVPDEEVGGHQGMELFVQRPEFHALRAGFALDEGIANPTDAFTVFYSERSPWWVRVTSTGRPGHASRFMEDTAAEKLHKVVNSILAFREKEWQRLQSNPHLKEGSVTSVNLTKLEGGVAYNVIPATMSASFDFRVAPDVDFKAFEEQLQSWCQAAGEGVTLEFAQKWMHPQVTPTDDSNPWWAAFSRVCKDMNLTLEPEIMPAATDNRYIRAVGVPALGFSPMNRTPVLLHDHDERLHEAVFLRGVDIYTRLLPALASVPALPSDS
partner: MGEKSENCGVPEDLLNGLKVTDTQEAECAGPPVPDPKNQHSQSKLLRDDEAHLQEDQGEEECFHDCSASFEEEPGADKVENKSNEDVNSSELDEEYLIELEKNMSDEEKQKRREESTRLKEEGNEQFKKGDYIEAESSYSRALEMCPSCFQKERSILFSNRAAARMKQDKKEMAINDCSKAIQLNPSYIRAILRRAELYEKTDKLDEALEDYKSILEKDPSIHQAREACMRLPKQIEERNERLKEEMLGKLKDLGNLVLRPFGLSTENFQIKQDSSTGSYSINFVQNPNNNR
B3: X-linked retinitis pigmentosa GTPase regulator (Homo sapiens), Q92834 (parent)
chain: MREPEELMPDSGAVFTFGKSKFAENNPGKFWFKNDVPVHLSCGDEHSAVVTGNNKLYMFGSNNWGQLGLGSKSAISKPTCVKALKPEKVKLAACGRNHTLVSTEGGNVYATGGNNEGQLGLGDTEERNTFHVISFFTSEHKIKQLSAGSNTSAALTEDGRLFMWGDNSEGQIGLKNVSNVCVPQQVTIGKPVSWISCGYYHSAFVTTDGELYVFGEPENGKLGLPNQLLGNHRTPQLVSEIPEKVIQVACGGEHTVVLTENAVYTFGLGQFGQLGLGTFLFETSEPKVIENIRDQTISYISCGENHTALITDIGLMYTFGDGRHGKLGLGLENFTNHFIPTLCSNFLRFIVKLVACGGCHMVVFAAPHRGVAKEIEFDEINDTCLSVATFLPYSSLTSGNVLQRTLSARMRRRERERSPDSFSMRRTLPPIEGTLGLSACFLPNSVFPRCSERNLQESVLSEQDLMQPEEPDYLLDEMTKEAEIDNSSTVESLGETTDILNMTHIMSLNSNEKSLKLSPVQKQKKQQTIGELTQDTALTENDDSDEYEEMSEMKEGKACKQHVSQGIFMTQPATTIEAFSDEEVGNDTGQVGPQADTDGEGLQKEVYRHENNNGVDQLDAKEIEKESDGGHSQKESEAEEIDSEKETKLAEIAGMKDLREREKSTKKMSPFFGNLPDRGMNTESEENKDFVKKRESCKQDVIFDSERESVEKPDSYMEGASESQQGIADGFQQPEAIEFSSGEKEDDEVETDQNIRYGRKLIEQGNEKETKPIISKSMAKYDFKCDRLSEIPEEKEGAEDSKGNGIEEQEVEANEENVKVHGGRKEKTEILSDDLTDKAEDHEFSKTEELKLEDVDEEINAENVESKKKTVGDDESVPTGYHSKTEGAERTNDDSSAETIEKKEKANLEERAICEYNENPKGYMLDDADSSSLEILENSETTPSKDMKKTKKIFLFKRVPSINQKIVKNNNEPLPEIKSIGDQIILKSDNKDADQNHMSQNHQNIPPTNTERRSKSCTIL
partner: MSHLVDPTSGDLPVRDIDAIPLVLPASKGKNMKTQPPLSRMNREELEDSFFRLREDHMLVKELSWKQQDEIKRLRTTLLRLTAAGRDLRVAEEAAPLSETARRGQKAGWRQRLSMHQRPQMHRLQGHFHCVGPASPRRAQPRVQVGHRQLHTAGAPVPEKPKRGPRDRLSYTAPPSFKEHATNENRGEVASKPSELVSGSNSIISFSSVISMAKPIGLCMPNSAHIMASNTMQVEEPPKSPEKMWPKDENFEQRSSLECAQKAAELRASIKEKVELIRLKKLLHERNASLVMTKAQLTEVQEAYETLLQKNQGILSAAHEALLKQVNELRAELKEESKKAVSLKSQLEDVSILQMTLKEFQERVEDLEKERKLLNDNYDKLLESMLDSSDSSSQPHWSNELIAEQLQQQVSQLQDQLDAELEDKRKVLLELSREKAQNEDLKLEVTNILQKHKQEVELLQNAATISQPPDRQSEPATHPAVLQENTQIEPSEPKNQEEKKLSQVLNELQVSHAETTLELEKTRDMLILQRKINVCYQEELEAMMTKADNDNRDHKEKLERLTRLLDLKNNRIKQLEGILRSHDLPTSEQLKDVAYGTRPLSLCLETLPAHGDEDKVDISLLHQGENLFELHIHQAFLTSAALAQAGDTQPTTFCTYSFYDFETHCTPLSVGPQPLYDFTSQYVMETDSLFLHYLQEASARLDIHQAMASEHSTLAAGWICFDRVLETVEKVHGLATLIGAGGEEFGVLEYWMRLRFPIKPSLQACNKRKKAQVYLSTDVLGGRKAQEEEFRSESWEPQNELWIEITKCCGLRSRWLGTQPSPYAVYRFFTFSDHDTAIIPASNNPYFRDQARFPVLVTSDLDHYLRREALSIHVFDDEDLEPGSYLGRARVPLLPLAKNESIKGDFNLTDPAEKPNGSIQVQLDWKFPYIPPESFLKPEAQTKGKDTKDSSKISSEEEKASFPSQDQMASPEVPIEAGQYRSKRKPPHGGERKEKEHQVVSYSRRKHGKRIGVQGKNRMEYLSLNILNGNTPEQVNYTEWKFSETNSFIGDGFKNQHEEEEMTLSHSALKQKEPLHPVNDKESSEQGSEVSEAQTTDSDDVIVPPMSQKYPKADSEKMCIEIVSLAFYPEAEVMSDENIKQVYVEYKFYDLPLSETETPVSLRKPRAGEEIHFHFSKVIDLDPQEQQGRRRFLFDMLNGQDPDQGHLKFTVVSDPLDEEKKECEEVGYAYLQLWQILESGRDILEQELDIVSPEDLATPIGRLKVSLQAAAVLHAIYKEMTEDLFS
B4: Protein DBF4 homolog A (Homo sapiens), Q9UBU7 (parent)
chain: MNSGAMRIHSKGHFQGGIQVKNEKNRPSLKSLKTDNRPEKSKCKPLWGKVFYLDLPSVTISEKLQKDIKDLGGRVEEFLSKDISYLISNKKEAKFAQTLGRISPVPSPESAYTAETTSPHPSHDGSSFKSPDTVCLSRGKLLVEKAIKDHDFIPSNSILSNALSWGVKILHIDDIRYYIEQKKKELYLLKKSSTSVRDGGKRVGSGAQKTRTGRLKKPFVKVEDMSQLYRPFYLQLTNMPFINYSIQKPCSPFDVDKPSSMQKQTQVKLRIQTDGDKYGGTSIQLQLKEKKKKGYCECCLQKYEDLETHLLSEQHRNFAQSNQYQVVDDIVSKLVFDFVEYEKDTPKKKRIKYSVGSLSPVSASVLKKTEQKEKVELQHISQKDCQEDDTTVKEQNFLYKETQETEKKLLFISEPIPHPSNELRGLNEKMSNKCSMLSTAEDDIRQNFTQLPLHKNKQECILDISEHTLSENDLEELRVDHYKCNIQASVHVSDFSTDNSGSQPKQKSDTVLFPAKDLKEKDLHSIFTHDSGLITINSSQEHLTVQAKAPFHTPPEEPNECDFKNMDSLPSGKIHRKVKIILGRNRKENLEPNAEFDKRTEFITQEENRICSSPVQSLLDLFQTSEEKSEFLGFTSYTEKSGICNVLDIWEEENSDNLLTAFFSSPSTSTFTGF

One assay covers variants of B1. The following applies: with creb3_human CREB3, O43889.
Turning to T218M, the “effect of a mutation on the interaction” value is recorded as “with no effect”.

The variants in a further assay derive from B2. The following applies: with ttc1_human TTC1, Q99614.
Regarding R197W, the “effect of a mutation on the interaction” value is “disrupting interaction strength”.

Variants of B3 are the subject of another assay. The following applies: with rpgr1_human RPGRIP1, Q96KN7.
For Q456R, the “effect of a mutation on the interaction” value is “with no effect”.

Consider R425K, for which the “effect of a mutation on the interaction” value is “with no effect”.

With I75V, the “effect of a mutation on the interaction” value was “with no effect”.

As for C302S, the “effect of a mutation on the interaction” value is given as “with no effect”.

As for I431V, the “effect of a mutation on the interaction” value is “with no effect”.

Consider Q184H, for which the “effect of a mutation on the interaction” value was “with no effect”.

In the next assay the parent is B4. The following applies: with cdc7_human CDC7, O00311.
As for L306I, the “effect of a mutation on the interaction” value was “with no effect”.

In the case of K579E, the “effect of a mutation on the interaction” value was “with no effect”.

As to I526V, the “effect of a mutation on the interaction” value was “with no effect”.

The values above are taken from IntAct's records for PubMed 31515488.
